# Assay results reported in patent US20240366728A1 (CARMOT THERAPEUTICS, published 2024).
# T1: human GIPR (human, UniProt P48546 22-466)
# T1 sequence (looked up): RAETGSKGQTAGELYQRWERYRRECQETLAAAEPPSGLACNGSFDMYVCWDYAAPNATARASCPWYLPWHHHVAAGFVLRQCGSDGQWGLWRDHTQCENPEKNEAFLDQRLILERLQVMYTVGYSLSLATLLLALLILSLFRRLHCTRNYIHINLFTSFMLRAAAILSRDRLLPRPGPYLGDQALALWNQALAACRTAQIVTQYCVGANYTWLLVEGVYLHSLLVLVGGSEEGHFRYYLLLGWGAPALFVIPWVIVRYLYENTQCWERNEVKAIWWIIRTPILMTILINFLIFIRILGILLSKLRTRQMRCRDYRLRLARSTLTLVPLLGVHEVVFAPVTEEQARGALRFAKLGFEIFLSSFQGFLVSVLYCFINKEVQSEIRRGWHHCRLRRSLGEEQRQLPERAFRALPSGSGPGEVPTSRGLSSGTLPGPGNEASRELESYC
# T2: mouse GIPR (mouse, UniProt Q0P543 19-460)
# T2 sequence (looked up): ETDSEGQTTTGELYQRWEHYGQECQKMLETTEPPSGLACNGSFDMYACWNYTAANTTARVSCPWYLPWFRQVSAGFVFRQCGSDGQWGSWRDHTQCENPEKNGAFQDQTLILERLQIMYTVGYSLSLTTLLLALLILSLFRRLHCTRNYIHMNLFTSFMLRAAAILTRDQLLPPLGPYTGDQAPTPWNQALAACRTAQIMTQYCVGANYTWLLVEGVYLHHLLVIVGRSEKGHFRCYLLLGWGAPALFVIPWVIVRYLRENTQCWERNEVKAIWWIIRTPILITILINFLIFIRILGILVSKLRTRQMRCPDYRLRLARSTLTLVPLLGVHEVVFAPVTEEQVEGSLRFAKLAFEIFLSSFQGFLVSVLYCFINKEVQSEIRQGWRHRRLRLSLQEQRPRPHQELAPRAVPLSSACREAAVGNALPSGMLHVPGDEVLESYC
# T3: mouse GLP-1R (mouse, UniProt O35659 22-463)
# T3 sequence (looked up): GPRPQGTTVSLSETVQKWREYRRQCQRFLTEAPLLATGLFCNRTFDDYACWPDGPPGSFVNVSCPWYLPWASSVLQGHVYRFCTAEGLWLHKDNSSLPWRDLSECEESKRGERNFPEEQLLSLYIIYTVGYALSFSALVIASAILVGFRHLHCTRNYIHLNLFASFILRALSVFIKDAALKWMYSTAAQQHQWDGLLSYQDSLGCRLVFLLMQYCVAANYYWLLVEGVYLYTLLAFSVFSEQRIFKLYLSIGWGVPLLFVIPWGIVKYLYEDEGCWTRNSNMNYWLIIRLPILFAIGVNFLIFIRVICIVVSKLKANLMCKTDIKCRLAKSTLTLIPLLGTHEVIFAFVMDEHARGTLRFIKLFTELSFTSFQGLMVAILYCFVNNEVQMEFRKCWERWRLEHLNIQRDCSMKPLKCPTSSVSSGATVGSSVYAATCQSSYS
# B1: CT-868 (peptide)
# peptide: EGTFTSDYSIYLDKQAAXEFVNWLLAGGPSSGAPPPSK
# modifications: N-terminal 2-(2-Piperidon-1-yl)-ethylcarbamoylmethylthio-acetyl on Glu; Aib (18th residue of the printed chain); C-terminal Lys(γ-Glu-palmitoyl)-NH2; hydrochloride salt
# Experiments:
# Experiment in all cases: cell-based or functional assay
# human GLP-1R [1] = biological target: T4, human GLP-1R (human, UniProt P43220 24-463)
# human GIPR [2] = biological target: T1, human GIPR
# mouse GIPR = biological target: T2, mouse GIPR
# human GLP-1R [3] = biological target: T4, human GLP-1R; remark: listed apart in the source
# human GIPR [4] = biological target: T1, human GIPR; remark: listed apart in the source
# mouse GLP-1R = biological target: T3, mouse GLP-1R
binder,measurement,setting,value
B1,fold less potent than GLP-1 (cAMP accumulation),human GLP-1R [1],6 fold
same,fold less potent than GIP (cAMP accumulation),human GIPR [2],16 fold
same,ratio GLP-1R over GIPR (cAMP potency),human GIPR [2],~19.4
same,mGIPR cAMP (-alb) EC50,mouse GIPR,1.03 nM
same,mGIPR β-arrestin-2 EC50,mouse GIPR,6.21 nM
same,mGIPR/mGLP-1R cAMP ratio,mouse GIPR,6
same,hGLP-1R Internalization EC50,human GLP-1R [3],3.1 nM
same,hGLP-1R cAMP (-alb) EC50,human GLP-1R [3],0.156 nM
same,hGLP-1R β-arrestin-2 EC50,human GLP-1R [3],11 nM
same,hGIPR Internalization EC50,human GIPR [4],14 nM
same,hGIPR cAMP (-alb) EC50,human GIPR [4],1.9 nM
same,hGIPR β-arrestin-2 EC50,human GIPR [4],13 nM
same,hGIPR/hGLP-1R cAMP ratio,human GIPR [4],12
same,mGLP-1R cAMP (-alb) EC50,mouse GLP-1R,0.164 nM
same,mGLP-1R β-arrestin-2 EC50,mouse GLP-1R,21.1 nM
